From the RNAGym collection of RNA variant scans (doi:10.1093/molbev/msab373) come the findings set out here.

B1: Azoarcus group I ribozyme (parent)
chain: GUGCCUUGCGCCGGGAAACCACGCAAGGGAUGGUGUCAAAUUCGGCGAAACCUAAGCGCCCGCCCGGGCGUAUGGCAACGCCGAGCCAAGCUUCGGCGCCUGCGCCGAUGAAGGUGUAGAGACUAGACGGCACCCACCUAAGGCAAACGCUAUGGUGAAGGCAUAGUCCAGGGAGUGGCGAAAGUCACACAAACCGG

In this data set the parent is B1. Put plainly: reverse-splicing fitness (ratio to wild type); higher = more active; in vitro selection; Mg2+ level not given. The essentials: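 An in vitro group I ribozyme library with randomized positions was T7-transcribed and gel-purified. In triplicate, 10 pmol RNA in EPPS pH 7.5 was reacted with 50 pmoles of a 30-nt RNA substrate for 1 h at 37 °C across several added MgCl2 levels (1–48 mM), then stopped with EDTA. Products were reverse transcribed from a substrate-complementary primer, PCR-amplified and sequenced (HiSeq 4000). Fitness is a variant's read proportion after selection over that before, normalised to wild type.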
On to C82G A111C A145G C150U C169U U176G, for which the reverse-splicing fitness stood at 0.0071.
C82G A111C A145G C150U C169U U176C: the reverse-splicing fitness was determined as 0.0127.
Turning to C82G A111C A145G C150U C169U U176A, the reverse-splicing fitness is 0.0129.
Consider C82G A111C A145G C150G U176A, for which the reverse-splicing fitness stood at 0.0138.
Regarding C82G A111C A145G C150G U176C, the reverse-splicing fitness amounted to 0.0214.
C82G A111C A145G C150G U176G: the reverse-splicing fitness stood at 0.00754.
The result for C82G A111C A145U C150U C169A U176A reads 0.0121.
With C82G A111C A145U C150U C169A U176G, the reverse-splicing fitness worked out at 0.00772.
Consider C82G A111C A145U C150U C169A U176C, for which the reverse-splicing fitness turned out to be 0.0132.
The result for C82G A111C A145U C150A C169U U176A reads 0.0139; that for C82G A111C A145U C150A C169U U176G, 0.00816.
Turning to C82G A111C A145U C150A C169U U176C, the reverse-splicing fitness stood at 0.014.
Take C82G A111C A145G C150U U176G: the reverse-splicing fitness was found to be 0.0306.
With C82G A111C A145G C150U U176A the figure was 0.0896; with C82G A111C A145G C150U U176C, 0.11; with C82G A111C A145G C150A C169G U176C, 0.0256.
Consider C82G A111C A145G C150A C169G U176A, for which the reverse-splicing fitness is 0.0149.
Take C82G A111C A145G C150A C169G U176G: the reverse-splicing fitness was determined as 0.00825.
Take C82G A111C A145C C150U C169G: the reverse-splicing fitness turned out to be 0.00777.
With C82G A111C A145C C150U C169A the figure was 0.00808.
C82G A111C A145C C150U C169U: the reverse-splicing fitness is 0.0113.
Turning to C82G A111C A145U C150U C169G U176A, the reverse-splicing fitness was determined as 0.0124.
C82G A111C A145U C150U C169G U176C: the reverse-splicing fitness is 0.0196.
Consider C82G A111C A145U C150U C169G U176G, for which the reverse-splicing fitness is 0.00868.
With C82G A111C A145G C150A U176G the figure was 0.0116; with C82G A111C A145G C150A U176A, 0.0244; with C82G A111C A145G C150A U176C, 0.0396.
For C82G A111C A145U U176A, the reverse-splicing fitness came to 0.138.
With C82G A111C A145U U176C the figure was 0.136.
Turning to C82G A111C A145U U176G, the reverse-splicing fitness turned out to be 0.0645.
C82G A111C A145U C150U U176G: the reverse-splicing fitness is 0.0297.
With C82G A111C A145U C150U U176A, the reverse-splicing fitness turned out to be 0.0841.
Take C82G A111C A145U C150U U176C: the reverse-splicing fitness is 0.0883.
With C82G A111C A145U C150U C169U U176C the figure was 0.0115; with C82G A111C A145U C150U C169U U176G, 0.00778; with C82G A111C A145U C150U C169U U176A, 0.0161.
For the variant C82G A111C C150A C169A, the reverse-splicing fitness was 0.011.
As to C82G A111C A145U C169U U176C, the reverse-splicing fitness is 0.0153.
Regarding C82G A111C A145U C169U U176A, the reverse-splicing fitness was determined as 0.0168.
Turning to C82G A111C A145U C169U U176G, the reverse-splicing fitness amounted to 0.00693.
For the variant C82G A111C A145G C169U, the reverse-splicing fitness was found to be 0.0141.
C82G A111C A145G C169G: the reverse-splicing fitness was 0.00916.
With C82G A111C A145G C169A, the reverse-splicing fitness came out at 0.0104.
For C82G A111C A145U C169G, the reverse-splicing fitness was 0.0102.
For C82G A111C A145U C169A, the reverse-splicing fitness came out at 0.00813.
Turning to C82G A111C A145U C169U, the reverse-splicing fitness worked out at 0.0133.
For C82G A111C A145G C150A C169A U176C, the reverse-splicing fitness was found to be 0.0204.
Take C82G A111C A145G C150A C169A U176G: the reverse-splicing fitness came out at 0.0086.
With C82G A111C A145G C150A C169A U176A the figure was 0.0179; with C82G A111C A145C C150U, 0.0631.
With C82G A111C A145U C169G U176C, the reverse-splicing fitness is 0.0169.
For the variant C82G A111C A145U C169G U176A, the reverse-splicing fitness worked out at 0.014.
As for C82G A111C A145U C169G U176G, the reverse-splicing fitness was 0.00766.
Consider C82G A111C A145U C150U C169A, for which the reverse-splicing fitness amounted to 0.00854.
Turning to C82G A111C A145U C150U C169G, the reverse-splicing fitness amounted to 0.00905.
C82G A111C A145U C150U C169U: the reverse-splicing fitness amounted to 0.0121.
The result for C82G A111C A145C C150G U176G reads 0.00447; that for C82G A111C A145C C150G U176C, 0.0203; that for C82G A111C A145C C150G U176A, 0.0132.
Take C82G A111C A145C U176G: the reverse-splicing fitness came to 0.0504.
The result for C82G A111C A145C U176C reads 0.137; that for C82G A111C A145C U176A, 0.126; that for C82G A111C A145G C150U C169A U176A, 0.0153.
Take C82G A111C A145G C150U C169A U176G: the reverse-splicing fitness came to 0.00789.
The result for C82G A111C A145G C150U C169A U176C reads 0.0146.
Take C82G A111C C150A C169A U176A: the reverse-splicing fitness is 0.0183.
The result for C82G A111C C150A C169A U176C reads 0.0158.
For C82G A111C A145C C169U U176C, the reverse-splicing fitness amounted to 0.016.
For the variant C82G A111C A145C C169U U176G, the reverse-splicing fitness was found to be 0.00741.
As to C82G A111C A145C C169U U176A, the reverse-splicing fitness is 0.018.
The result for C82G A111C A145U C150G U176C reads 0.0214.
With C82G A111C A145U C150G U176A, the reverse-splicing fitness was found to be 0.0124.
Take C82G A111C A145U C150G U176G: the reverse-splicing fitness was found to be 0.0052.
Regarding C82G A111C A145G C150U C169A, the reverse-splicing fitness worked out at 0.0097.
Take C82G A111C A145G C150U C169U: the reverse-splicing fitness was determined as 0.0115.
Take C82G A111C A145G C150U C169G: the reverse-splicing fitness was 0.00884.
As for C82G A111C A145G C150G C169U U176C, the reverse-splicing fitness amounted to 0.0116.
The result for C82G A111C A145G C150G C169U U176G reads 0.00728; that for C82G A111C A145G C150G C169U U176A, 0.0103; that for C82G A111C A145C C150U U176C, 0.044.
For the variant C82G A111C A145C C150U U176G, the reverse-splicing fitness stood at 0.0162.
As for C82G A111C A145C C150U U176A, the reverse-splicing fitness turned out to be 0.0341.
Consider C82G A111C A145G, for which the reverse-splicing fitness is 0.289.
